# Assays:
# [1] = biological target: T1, Human CCR7 (human, UniProt P32248 25-378); assay: cell-based or functional assay
# T1 sequence: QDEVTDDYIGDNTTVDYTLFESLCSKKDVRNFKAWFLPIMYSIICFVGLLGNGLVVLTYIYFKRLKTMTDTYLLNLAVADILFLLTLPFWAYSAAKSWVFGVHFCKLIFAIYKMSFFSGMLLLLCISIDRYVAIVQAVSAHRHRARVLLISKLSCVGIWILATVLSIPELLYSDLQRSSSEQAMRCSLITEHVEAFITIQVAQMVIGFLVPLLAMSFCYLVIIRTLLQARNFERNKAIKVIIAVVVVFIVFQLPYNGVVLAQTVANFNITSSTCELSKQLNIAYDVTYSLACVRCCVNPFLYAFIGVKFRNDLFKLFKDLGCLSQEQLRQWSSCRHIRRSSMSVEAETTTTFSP
# [2] = biological target: T1, Human CCR7; assay: FACS binding assay
# [3] = biological target: T1, Human CCR7; assay: cell-based or functional assay; remark: listed apart in the source
# [4] = biological target: T1, Human CCR7; assay: cell-based or functional assay; remark: listed apart in the source
binder,measurement,setting,value
"684E12 non-humanized CysMab (antibody, human IgG1, kappa, V domains shown) VH: EVHLVESGGGLVKPGGSLKLSCAASGFTFSNFAMSWVRQTPEKRLEWVATISTGGTYTYYPDSVKGRFTISRDNAKKTLYLQMSSLRSEDTAMYYCTRRGYDGVDKWGQGTTLTVSS VL: not shown","ADCC activity; IC50 (nM); surrogate ADCC reporter assay, JVM2 target cells and Jurkat-V158 effector cells",[1],2.63 nM
"684E12.SMCC.DM1 (antibody, V domains shown, SMCC-DM1 on lysines of the antibody, sites not defined; DAR 2.6, also called parental 684E12.SMCC.DM1 (DAR2.6)) VH: EVHLVESGGGLVKPGGSLKLSCAASGFTFSNFAMSWVRQTPEKRLEWVATISTGGTYTYYPDSVKGRFTISRDNAKKTLYLQMSSLRSEDTAMYYCTRRGYDGVDKWGQGTTLTVSS VL: not shown","geometric mean fluorescence intensity, difference from the unconjugated antibody",[2],≤ 20%
"674J13 non-humanized CysMab (antibody, human IgG1, kappa, V domains shown) VH: DVQLQESGPDLVKPSQSLSLTCTVTGYSITSGYSWHWIRQFPGNKLEWMAHIHSSGSTNYNPSLKSRISIIRDTSKNLFFLQLNSVTTEDTATYYCARGGVQAFAYWGQGTLVTVSA VL: QIVLTQSPAIMSASPGEKVTMTCSASSSVIYMHWYQQKSGTSPKRWIYDTSKLASGVPARFSGSGSGTSYSLTISSMEAEDAATYYCQQWSSNPLTFGAGTTLELKR","ADCC activity; IC50 (nM); surrogate ADCC reporter assay, JVM2 target cells and Jurkat-V158 effector cells",[1],1.09 nM
"674J13.CysMab.DAPA.AURIX2 (antibody, human IgG1, kappa, V domains shown, DAR LC 0.03; AURIX2 on the engineered cysteines; DAR HC 3.93, also called 674J13.DAPA.AURIX2) VH: DVQLQESGPGLVKPSQTLSLTCTVSGYSITSGYSWHWIRQHPGKGLEWMAHIHSSGSTNYNPSLKSRITISRDTSKNQFSLKLSSVTAADTAVYYCARGGVQAFAYWGQGTLVTVSS VL: EIVLTQSPATLSASPGERVTMSCSASSSVIYMHWYQQKPGQAPRRWIYDTSKLASGVPARFSGSGSGTDYTLTISSMEPEDAAVYYCQQWSSNPLTFGQGTKLEIKR","geometric mean fluorescence intensity, difference from the unconjugated antibody",[2],≤ 20%
same,"ADC activity in cell viability assay; IC50 (nM); CML-T1 cells (~29,000 CCR7 receptors)",[3],3.78 nM
same,"ADC activity in cell viability assay; IC50 (nM); DEL cells (~100,000 CCR7 receptors)",[3],0.242 nM
same,"ADC activity in cell viability assay; IC50 (nM); KE97 cells (~100,000 CCR7 receptors)",[3],0.102 nM
same,"ADC activity in cell viability assay; IC50 (nM); SR786 cells (~28,000 CCR7 receptors)",[3],2.74 nM
"506E15 Parental (antibody, V domains shown) VH: EVMLVESGGGLVKPGGSLKLSCAASGFTFSSYAMSWIRQTPEKRLEWVATISSGGSFTYYPDSVKGRFTISRDNVKNTLYLQMSSLRSEDTAMYYCARRASTVVGTDFDVWGAGTTVTVSS VL: DIQMTQSPSSLSASLGERVSLTCRASQDIGSSLNWLQQEPDGTIKRLIYATSSLDSGVPKRFSGSRSGSDYSLTISSLESEDFVVYYCLQYASSPPTFGGGTKLEIK","506E15 IC50 (nM); ADCC reporter assay, ALL-SIL cells (6,200 CCR7 receptors)",[4],0.008 nM
same,"506E15 IC50 (nM); ADCC reporter assay, CMLT-1 cells (29,000 CCR7 receptors)",[4],0.011 nM
same,"506E15 IC50 (nM); ADCC reporter assay, DEL cells (62,000 CCR7 receptors)",[4],0.074 nM
same,"506E15 IC50 (nM); ADCC reporter assay, DND-41 cells (1,700 CCR7 receptors)",[4],0.002 nM
same,"506E15 IC50 (nM); ADCC reporter assay, JVM2 cells (66,500 CCR7 receptors)",[4],0.046 nM
same,"506E15 IC50 (nM); ADCC reporter assay, Jurkat V158 cells (3,400 CCR7 receptors)",[4],0.004 nM
same,"506E15 IC50 (nM); ADCC reporter assay, MOTN-1 cells (64,600 CCR7 receptors)",[4],0.077 nM
same,"506E15 IC50 (nM); ADCC reporter assay, PEER cells (8,700 CCR7 receptors)",[4],0.038 nM
same,"506E15 IC50 (nM); ADCC reporter assay, SR786 cells (27,800 CCR7 receptors)",[4],0.011 nM
"506E15 non-humanized CysMab (antibody, human IgG1, kappa, V domains shown) VH: EVMLVESGGGLVKPGGSLKLSCAASGFTFSSYAMSWIRQTPEKRLEWVATISSGGSFTYYPDSVKGRFTISRDNVKNTLYLQMSSLRSEDTAMYYCARRASTVVGTDFDVWGAGTTVTVSS VL: DIQMTQSPSSLSASLGERVSLTCRASQDIGSSLNWLQQEPDGTIKRLIYATSSLDSGVPKRFSGSRSGSDYSLTISSLESEDFVVYYCLQYASSPPTFGGGTKLEIKR","ADCC activity; IC50 (nM); surrogate ADCC reporter assay, JVM2 target cells and Jurkat-V158 effector cells",[1],0.131 nM

# — patent US20240092918A1 (Novartis, published 2024)
